Results as given in US20220363752A1 (VERSEAU THERAPEUTICS, published 2022).

Legend:
[1] = target: T1, His-tagged cynomolgus monkey LRRC25 extracellular domain protein, cyno LRRC25-His (cynomolgus monkey); test: ELISA, antibody titrated on plate-immobilized Cyno LRRC25(ECD)-His, A450nm against -log [IgG] (M), right panel
T1 construct: The entry holds the extracellular domain, a GSG linker and the His tag
Procedure: (§1) To establish the relative binding strengths of anti-LRRC25 antibodies against human LRRC25, and their cross-reactivity with cynomolgus monkey LRRC25, antibody binding curve analyses were performed and EC50 values against plate-immobilized recombinant human and cyno LRRC25 proteins were determined.
(§2) A typical ELISA was performed by coating overnight in PBS, pH 7.4, at 4° C. in high binding microtiter wells with 1 ug/mL/100 ul per well of human LRRC25-His or cyno LRRC25-His. An anti-human LRRC25 antibody (2A3, LS Bio, LS-C174039-100) and anti-HIS-HRP (Miltenyi Biotec; 130-092-783) served as coating controls for the human and cyno LRRC25 proteins, respectively. […] Anti-LRRC25 antibodies were added (100 ul per well) at 500 nM and serially diluted 3-fold in assay buffer (1% skimmed milk in PBS, pH 7.4). The plate was incubated with gentle agitation for 1 h at room temperature. The plate was washed 3× and HRP-conjugated secondary antibody in assay buffer added [100 ul per well; goat anti-human IgG (Jackson Immunoresearch, cat #715-035-150)], and the plate was incubated as before. Antibody bound to plate-immobilized LRRC25(ECD)-HIS was determined at A450 nm using HRP substrate (3,3′,5,5′-tetramethylbenzidine (TMB); eBioscience; 00-4201-56); 100 μl/well).

[2] = target: T2, LRRC25(81-100) biotin peptide (human, not fully specified; N-terminal acetyl; C-terminal GGK-Biotin); test: ELISA, 20 nM antibody, biotinylated antigen on streptavidin plate
T2 peptide: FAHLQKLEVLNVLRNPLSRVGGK
Method in brief: (§3)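 Plate-bound streptavidin captured biotinylated 16- to 20-mer LRRC25 ECD overlapping peptides (2 ug/mL), with biotinylated human LRRC25-His as positive control. Chimeric anti-LRRC25 antibodies at 20 nM, 45 min at 37° C in duplicate; detection by HRP anti-human IgG and TMB at A450 nm.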

[3] = target: T3, LRRC25(96-115) biotin peptide (human, not fully specified; N-terminal acetyl; C-terminal GGK-Biotin; native Cys changed to Ser); test: as above
T3 construct: also called Biotin LRRC25 (96-115) peptide
T3 peptide: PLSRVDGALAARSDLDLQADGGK
Method in brief: as §3

[4] = target: T4, biotinylated human LRRC25-His protein (human, UniProt Q8N386 21-165, biotinylated (sites not given)); test: as above
T4 construct: also called Biotin LRRC25-His; biotinylated LRRC25 protein
Method in brief: as §3

[5] = target: T5, His-tagged human LRRC25 extracellular domain protein, human LRRC25-His (human, UniProt Q8N386 21-165); test: ELISA, plate-immobilized antigen
T5 construct: The entry holds the extracellular domain, a GSG linker and the His tag; also called LRRC25(ECD)-HIS
Method in brief: (§4)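 Wells coated overnight at 4 °C with 1 ug/mL antigen in PBS pH 7.4. Antibodies titrated from 500 nM in 3-fold steps in 1% skimmed milk/PBS, 1 h at room temperature, then HRP anti-human IgG; TMB read at A450 nm and EC50 taken from binding curves.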

[6] = target: T1, His-tagged cynomolgus monkey LRRC25 …; test: ELISA, plate-immobilized antigen
Method in brief: as §4

[7] = target: T5, His-tagged human LRRC25 extracellular …; test: ELISA, antibody titrated on plate-immobilized Human LRRC25(ECD)-His, A450nm against -log [IgG] (M), left panel
Procedure: as §1, §2

T5 sequence (Q8N386 other isoform, or with tags, fused parts or gaps): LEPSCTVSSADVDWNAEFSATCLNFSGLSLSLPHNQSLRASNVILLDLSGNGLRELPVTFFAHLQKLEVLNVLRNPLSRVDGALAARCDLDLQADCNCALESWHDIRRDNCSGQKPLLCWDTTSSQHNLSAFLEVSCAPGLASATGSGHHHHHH
T1 sequence (chain, as listed by the source limits assumed): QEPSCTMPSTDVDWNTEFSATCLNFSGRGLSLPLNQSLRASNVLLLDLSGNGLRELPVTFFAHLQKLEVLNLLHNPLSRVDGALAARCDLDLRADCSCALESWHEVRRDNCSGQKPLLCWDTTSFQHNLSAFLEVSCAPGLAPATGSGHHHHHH
T4 sequence (Q8N386 other isoform, or with tags, fused parts or gaps): as the sequence (Q8N386 other isoform, or with tags, fused parts or gaps) above

B1: anti-LRRC25 chimeric antibody 2D09 (antibody, human IgG4, V domains shown)
VH: QVTLKESGPGTVQPSQTLSLTCSFSGFSLSTSGMGVSWIRQSSGKGLEWLAHIYWDDDKRYNPSLKSRLTISKDTSSNQVFLRITSVDTADTATYYCARRPRDFYGGGHWYFDVWGAGTTVTVSS
VL: DVVMTQTPKSMSMSVGERVTLNCKASENVGTYVSWYQQKPEQSPKLLIYGASNRYTGVPDRFTGSGSATDFTLTISSMQAEDLADYHCGQSYNFPLTFGAGTKLELKR
notes: also called mAb 2D09; MAb 2D09
EC50 (read off the curve) [1]: ~0.7 nM
absorbance (A450) [2]: 0.676 A450
fold lower assay signal than with the biotinylated LRRC25 protein [2]: ~4 fold
absorbance (A450) [3]: 0.095 A450
absorbance (A450) [4]: 2.5 A450
EC50 [5]: 1.2 nM
EC50 [6]: 0.68 nM
EC50 (read off the curve) [7]: ~1 nM
